Test results published in PMC3434267.

Legend:
[1] = biological target: mGluR5 (endogenous, mouse) (mouse (endogenous in brain, spinal cord and cultured cortical neurons)) (UniProt Q3UVX5); assay: co-IP
[2] = biological target: Homer (pan-Homer immunoprecipitation), DIV 14 cortical neurons (Figure 5c) (mouse (endogenous in cultured cortical neurons)); assay: co-IP

| co-IP in Preso1^−/− brain, % of WT [1] | co-IP in BDNF-treated Preso1^−/− neurons, % of untreated WT [2] [%] | co-IP in DHPG-treated Preso1^−/− neurons, % of untreated WT [2] [%] | co-IP in WT neurons after BDNF 30 min, % of untreated [2] [%] | co-IP in WT neurons after DHPG 30 min, % of untreated (% of untreated) [2] | co-IP in untreated Preso1^−/− neurons, % of untreated WT (BDNF series) [2] [%] | co-IP in untreated Preso1^−/− neurons, % of untreated WT (DHPG series) [2] [%] | Substance |
| --- | --- | --- | --- | --- | --- | --- | --- |
| 64.4 % of WT | – | – | – | – | – | – | ERK1/2, mouse forebrain (Figure 5b) |
| – | 69.8 | 54 | 158 | 157 | 65.3 | 47 | mGluR5 (endogenous, mouse) (from UniProt Q3UVX5 19-1203) (receptor) |
